From the Human Domainome abundance scans (Beltran et al. 2025)
± gives the uncertainty stated by the source.

B1: Myocardin-related transcription factor A, residues 341 to 383; numbered along this chain, Q969V6 (parent)
chain: GALPANLDDMKVAELKQELKLRSLPVSGTKTELIERLRAYQDQ

Variants of: B1
Assay: abundance fitness (aPCA) (normalised: wild type 0, dead -1); higher = more abundant; growth selection in yeast, the domain comes from the species named
Conditions: Homo sapiens

Abundance fitness of substitutions, site by site:
P25: D -0.197 ± 0.088; L -0.542 ± 0.074; A -0.263 ± 0.069; S -0.165 ± 0.077; V -0.358 ± 0.11; I 0.319 ± 0.25; F -0.963 ± 0.14; Y -0.293 ± 0.18; G -0.186 ± 0.059; H -0.875 ± 0.21; R -0.304 ± 0.069; K -0.135 ± 0.1; W -0.808 ± 0.072; Q -0.167 ± 0.44; E -0.055 ± 0.076
K20: Y 0.657 ± 0.28; V -0.041 ± 0.072; T -0.145 ± 0.1; W -0.372 ± 0.072; S 0.05 ± 0.075
A39: E 0.411 ± 0.11; F -0.127 ± 0.11; Y 0.129 ± 0.075; I -0.034 ± 0.11; W 0.074 ± 0.076; K 0.284 ± 0.064; Q 0.205 ± 0.086; N 0.259 ± 0.088; P 0.168 ± 0.096; L 0.168 ± 0.077; V 0.187 ± 0.06; S 0.221 ± 0.073
E35: K 0.035 ± 0.1; V -0.171 ± 0.078; A 0.23 ± 0.06; Y 0.166 ± 0.18; W -0.19 ± 0.11; S 0.109 ± 0.091; F -0.242 ± 0.083; Q 0.398 ± 0.12; T -0.173 ± 0.14; R -0.047 ± 0.058; I -0.174 ± 0.16; L 0.026 ± 0.16; G 0.041 ± 0.08; P -0.505 ± 0.1
L37: S -0.419 ± 0.08; D -0.298 ± 0.087; W -0.403 ± 0.072; E -0.504 ± 0.086; C -0.404 ± 0.13; M -0.165 ± 0.081; A -0.435 ± 0.076; G -0.303 ± 0.067; R -0.462 ± 0.072; Q -0.631 ± 0.1; N -0.327 ± 0.12; K -0.455 ± 0.14; V -0.3 ± 0.092; T -0.416 ± 0.12
Y40: K -0.103 ± 0.12; W 0.178 ± 0.073; P 0.192 ± 0.1; E 0.179 ± 0.11; N 0.127 ± 0.075; S 0.246 ± 0.074; L -0.062 ± 0.077; G 0.202 ± 0.065; R 0.042 ± 0.061; F 0.12 ± 0.062; A 0.247 ± 0.064; Q -0.189 ± 0.23; V 0.179 ± 0.062; D 0.308 ± 0.074; M 0.02 ± 0.087; C 0.127 ± 0.082; T 0.08 ± 0.11; H 0.228 ± 0.15
K30: S -0.231 ± 0.08; P -0.242 ± 0.17; T -0.091 ± 0.092; N -0.343 ± 0.11; I -0.158 ± 0.15; V -0.509 ± 0.09; R 0.024 ± 0.07; Q -0.092 ± 0.098; W -0.6 ± 0.081; M -0.332 ± 0.21; H -0.217 ± 0.086; D -0.478 ± 0.084; E -0.269 ± 0.093; A -0.403 ± 0.088; G -0.494 ± 0.07; F -0.463 ± 0.14
T31: W -0.246 ± 0.063; P -0.074 ± 0.077; M -0.089 ± 0.12; R 0.012 ± 0.055; E 0.085 ± 0.07; V -0.035 ± 0.065; L -0.145 ± 0.08; Y -0.193 ± 0.13; N -0.332 ± 0.25; H -0.129 ± 0.17; Q -0.138 ± 0.068; I 0.092 ± 0.12; D 0.005 ± 0.099; S -0.061 ± 0.07; K -0.141 ± 0.088; A 0.098 ± 0.058; G -0.011 ± 0.06
I34: L -0.146 ± 0.086; G -0.305 ± 0.074; H -0.186 ± 0.12; V -0.21 ± 0.079; Y 0.017 ± 0.12; W -0.363 ± 0.077; K -0.031 ± 0.071; T -0.151 ± 0.1; R -0.146 ± 0.063; M -0.144 ± 0.089; E -0.151 ± 0.18; C -0.139 ± 0.079; D -0.546 ± 0.12; Q 0.116 ± 0.15; A -0.187 ± 0.081
G28: K -0.862 ± 0.22; H -1.18 ± 0.19; Q -0.659 ± 0.1; L -1.06 ± 0.092; V -1.38 ± 0.15; Y -0.626 ± 0.29; T -1.56 ± 0.43; C -0.608 ± 0.25; E -0.628 ± 0.088; S -0.85 ± 0.1; D -0.758 ± 0.13; M -0.957 ± 0.12; A -1.02 ± 0.1; P -1.13 ± 0.27; W -1.03 ± 0.16
V26: Y -0.031 ± 0.23; L 0.229 ± 0.071; E 0.168 ± 0.082; W -0.538 ± 0.24; M -0.032 ± 0.074; R -0.129 ± 0.067; A 0.18 ± 0.082; K -0.195 ± 0.14; P 0.191 ± 0.084; F -0.033 ± 0.12; N -0.466 ± 0.17; Q 0.155 ± 0.096; C -0.223 ± 0.18; H -0.265 ± 0.15; S -0.035 ± 0.071; G -0.038 ± 0.12
L21: H 0.003 ± 0.23; E 0.098 ± 0.071; V -0.004 ± 0.068; R 0.057 ± 0.063; D 0.041 ± 0.081; A 0.038 ± 0.075; Q 0.061 ± 0.1; G -0.067 ± 0.065; F -0.177 ± 0.091; T 0.094 ± 0.085; N -0.08 ± 0.45; P -0.593 ± 0.13; S -0.089 ± 0.06; C -0.229 ± 0.14; W -0.283 ± 0.078
E32: L -0.472 ± 0.081; T -0.143 ± 0.12; K -0.198 ± 0.097; A -0.053 ± 0.063; Y -0.669 ± 0.12; P -0.533 ± 0.1; R -0.319 ± 0.055; M -0.239 ± 0.16; C -0.17 ± 0.072; G -0.606 ± 0.071; I -0.149 ± 0.12; H -0.375 ± 0.14; V -0.093 ± 0.069; W -1.15 ± 0.14; N -0.357 ± 0.43; Q -0.038 ± 0.086
Q41: I -0.021 ± 0.21; W 0.083 ± 0.083; M 0.107 ± 0.078; Y -0.307 ± 0.28; P 0.066 ± 0.072; F 0.222 ± 0.19; L 0.069 ± 0.066; C 0.061 ± 0.1; K 0.202 ± 0.096; N 0.18 ± 0.21; V 0.055 ± 0.056; G 0.262 ± 0.058; R 0.089 ± 0.06; H -0.125 ± 0.1; S 0.081 ± 0.061
R36: S -0.291 ± 0.075; T -0.113 ± 0.082; V -0.339 ± 0.061; N -0.356 ± 0.12; P -0.066 ± 0.1; A -0.128 ± 0.066; Q -0.201 ± 0.072; C -0.128 ± 0.12; K -0.234 ± 0.1; I -0.728 ± 0.27; G -0.188 ± 0.065; E -0.529 ± 0.12; L -0.416 ± 0.086; M -0.395 ± 0.21; W -0.73 ± 0.08
S23: F -0.205 ± 0.14; I -0.307 ± 0.084; D 0.073 ± 0.072; A 0.018 ± 0.063; C 0.052 ± 0.11; V -0.22 ± 0.072; M -0.162 ± 0.095; H 0.176 ± 0.11; R -0.036 ± 0.061; L -0.018 ± 0.071; Q -0.101 ± 0.083; K 0.142 ± 0.15; W -0.256 ± 0.083; E 0.092 ± 0.084; N 0.008 ± 0.071; Y 0.038 ± 0.2; P -0.834 ± 0.28; G 0.291 ± 0.063
D42: A 0.205 ± 0.066; H -0.23 ± 0.093; I -0.538 ± 0.12; E 0.137 ± 0.11; C 0.045 ± 0.16; L -0.081 ± 0.072; P 0.059 ± 0.13; N 0.186 ± 0.41; K 0.022 ± 0.083; Q -0.087 ± 0.23
L24: C -0.385 ± 0.091; G -0.471 ± 0.077; V -0.342 ± 0.075; R -0.436 ± 0.074; H -0.979 ± 0.18; Y -1.02 ± 0.2; W -0.751 ± 0.13; P -0.639 ± 0.13; D -0.835 ± 0.19; M -0.091 ± 0.078; A -0.27 ± 0.088; Q -0.07 ± 0.13; I -0.425 ± 0.11
T29: I -0.362 ± 0.11; V -0.26 ± 0.07; K -0.092 ± 0.093; Y -0.44 ± 0.21; W -0.601 ± 0.12; H -0.142 ± 0.17; R -0.196 ± 0.069; E 0.009 ± 0.079; S -0.084 ± 0.072; Q 0.157 ± 0.14; M -0.447 ± 0.081; C -0.198 ± 0.072; L -0.376 ± 0.11; D -0.147 ± 0.087
R38: T -0.233 ± 0.077; Q -0.24 ± 0.074; K -0.138 ± 0.096; L -0.224 ± 0.083; H -0.201 ± 0.17; M -0.052 ± 0.24; A 0.2 ± 0.18; W -0.236 ± 0.2; D -0.588 ± 0.27; S -0.126 ± 0.081; C -0.301 ± 0.086; V -0.152 ± 0.071; P -0.107 ± 0.1; E 0.074 ± 0.089; Y -0.053 ± 0.15; G -0.047 ± 0.063; F -0.626 ± 0.2; I -0.086 ± 0.37
L33: R -0.617 ± 0.07; K -0.315 ± 0.095; N 0.592 ± 0.39; G -0.224 ± 0.082; T -0.283 ± 0.098; S -0.067 ± 0.094; A -0.261 ± 0.26; V -0.249 ± 0.081; P -0.403 ± 0.17; M 0.046 ± 0.32; Q -0.128 ± 0.091
R22: L -0.223 ± 0.1; E -0.163 ± 0.11; T -0.301 ± 0.2; Q -0.079 ± 0.088; F -0.816 ± 0.41; W -0.572 ± 0.16; K -0.318 ± 0.14; N -0.47 ± 0.17; G -0.54 ± 0.096; S -0.561 ± 0.16; P -0.561 ± 0.25; H -0.232 ± 0.096; A -0.099 ± 0.16; V -0.277 ± 0.094; M -0.229 ± 0.18; C -0.178 ± 0.12; D -0.327 ± 0.22
S27: M -0.286 ± 0.11; R -0.186 ± 0.064; D 0.11 ± 0.097; V -0.251 ± 0.11; K -0.196 ± 0.15; T -0.196 ± 0.23; A 0.181 ± 0.14; Q -0.424 ± 0.26; C -0.201 ± 0.1; Y -0.136 ± 0.21; G -0.012 ± 0.075; L -0.376 ± 0.16; W -0.115 ± 0.091; P -0.08 ± 0.19; E 0.043 ± 0.1
